Target: T1, ngζ_1 toxin (zeta_1) of Neisseria gonorrhoeae, wild type (Neisseria gonorrhoeae, UniProt D5K9G7)
T1 sequence: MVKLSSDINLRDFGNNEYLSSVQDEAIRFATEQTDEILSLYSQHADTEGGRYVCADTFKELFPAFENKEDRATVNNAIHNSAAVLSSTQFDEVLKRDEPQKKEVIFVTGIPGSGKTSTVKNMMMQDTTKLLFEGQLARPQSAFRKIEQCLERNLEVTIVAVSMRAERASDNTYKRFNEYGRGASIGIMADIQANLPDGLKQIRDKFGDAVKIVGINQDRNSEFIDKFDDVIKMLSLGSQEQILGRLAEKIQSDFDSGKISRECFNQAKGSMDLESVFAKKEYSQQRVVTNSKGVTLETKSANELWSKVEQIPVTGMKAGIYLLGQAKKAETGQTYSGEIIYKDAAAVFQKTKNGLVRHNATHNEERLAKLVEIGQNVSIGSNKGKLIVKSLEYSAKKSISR
Assay: crystal structure
Settings: both partners purified

B1: ngε_1 antitoxin (epsilon_1) of Neisseria gonorrhoeae (natural protein)
chain: MNKVEPQESNAIRMIKEACEKNRRMMTDEAFRKEVEKRLYAGPSPELLAKLRVLWAANKEQ
notes: also called ng_ɛ1; source: E. coli BL21(DE3)-RIL, purified as ngε_1/ngζ_1 complex (Ni-NTA, standard chromatographic procedures)
B1: binds.
